Where a chain is given by its changes, count along the chain named. Numbers in names are those of the source. Read-outs that look alike come from different tables or passages of the source. Values belong to the molecule of their own block, whether it stands above or below them.
Experiments:
[1] = target: endogenous PD-L2 (human) (UniProt Q9BQ51); assay: FACS, NCI-H226 cells
[2] = target: PD-L2 (human) (UniProt Q9BQ51); assay: FACS blocking of hPD-L2 binding to HEK293T-hPD-1; low antigen concentration
[3] = target: PD-L2 (human) (UniProt Q9BQ51); assay: blocking of PD-L2 - PD-1 interaction (cell binding); low antigen concentration
[4] = target: PD-L2 (human) (UniProt Q9BQ51); assay: FACS blocking of PD-1 binding to CHO-K1/hPD-L2; high antigen concentration
[5] = target: PD-L2 (human) (UniProt Q9BQ51); assay: as above; remark: listed apart in the source
[6] = target: PD-L2 (human) (UniProt Q9BQ51); assay: FACS, CHO-K1 expressing human PD-L2
[7] = target: endogenous PD-L2 (human) (UniProt Q9BQ51); assay: FACS, NCI-H226 cells; remark: listed apart in the source
[8] = target: T1, mouse PD-L2 (full-length, on cells) (mouse, UniProt Q9WUL5 20-247); assay: FACS on HEK293T cells expressing mouse PD-L2
T1 construct: whole, on cells; HEK293 cells stably expressing full-length mouse PD-L2
T1 sequence (looked up): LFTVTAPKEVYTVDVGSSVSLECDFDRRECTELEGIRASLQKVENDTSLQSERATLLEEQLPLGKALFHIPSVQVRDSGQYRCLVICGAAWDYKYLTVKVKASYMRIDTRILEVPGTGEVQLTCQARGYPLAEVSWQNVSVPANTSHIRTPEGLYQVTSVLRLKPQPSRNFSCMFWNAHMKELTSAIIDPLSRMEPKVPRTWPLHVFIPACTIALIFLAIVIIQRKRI
Method: (§1) HEK293T cells expressing mouse PD-L2 were incubated with chimeric anti-PD-L2 antibodies. Cells were washed and binding was detected with an FITC-labelled anti-rat IgG Ab (Thermo Fisher Scientific). Flow cytometric analyses were performed using a FACSCalibur flow cytometer (Becton Dickinson). PE-labelled anti-mouse PD-L2 clone TY25 served as positive control. All peaks overlap except for the positive control in FIG. 6F.
(§2) The ability of anti-PD-L2 antibodies binding to mouse PD-L2, human PD-L1 or cyno PD-L2 was determined by FACS. HEK293 cells stably expressing full-length monkey PD-L2, mouse PD-L2 or human PD-L1 were established, subcloned and verified. For binding assay, 1.5×10⁵ cells in 100 μl of FACSwash buffer were incubated with individual anti-PD-L2 antibodies (0.5 μg/ml) for 30 min. After three times of washing, the cells were re-suspended in FACSwash buffer containing FITC-labelled goat-anti-rat IgG (Thermo Fisher, 1:1000) or APC-labelled goat-anti-ratIgG (Biolegend, Clone Poly4054) at a 1:2000 dilution for 20 min at 4° C., washed three times and subsequently subjected to FACS analysis. FACS data was analysed using FlowJo Software and depicted as histograms including secondary antibody only controls.

[9] = target: T2, human PD-L2 (full-length, on cells) (human, UniProt Q9BQ51 20-273); assay: FACS binding on cells expressing human PD-L2 (per the examples)
T2 construct: whole, on cells; CHO-K1 cells stably expressing full-length human PD-L2; also endogenous on NCI-H226 and transfected in Jurkat cells; also called hPD-L2; CHO-K1/hPD-L2
T2 sequence (looked up): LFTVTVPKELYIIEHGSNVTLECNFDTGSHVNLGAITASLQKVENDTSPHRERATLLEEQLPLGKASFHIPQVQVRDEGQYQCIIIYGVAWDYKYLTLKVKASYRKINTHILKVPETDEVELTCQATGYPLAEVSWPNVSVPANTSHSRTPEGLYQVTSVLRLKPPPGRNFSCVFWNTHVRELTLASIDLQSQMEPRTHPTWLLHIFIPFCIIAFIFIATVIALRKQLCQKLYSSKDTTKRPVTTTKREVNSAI

[10] = target: T3, human PD-L1 (full-length, on cells) (human, UniProt Q9NZQ7 19-290); assay: FACS on HEK293T cells expressing human PD-L1
T3 construct: whole, on cells; HEK293 cells stably expressing full-length human PD-L1
Method: as §1, with “human PD-L1” for “mouse PD-L2”, “anti-human PD-L1” for “anti-mouse PD-L2”, “MIH1” for “TY25”, “7F.” for “6F.”
as §2

[11] = target: T4, human PD-L2 (full-length, on cells) (human, UniProt Q9BQ51 20-273); assay: FACS binding to CHO-K1 cells expressing human PD-L2
T4 chain: T2 sequence (looked up)
In short: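 Flow cytometry on a BD FACSCalibur was used to measure binding to CHO-K1 cells stably expressing full-length human PD-L2. Staining took 20 min at 4° C with APC-labelled anti-rat IgG or anti-human IgG Fc, chosen to match the antibody format. GraphPad Prism was used for non-linear curve fitting of percentage of maximal binding against concentration to obtain the binding EC50.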

[12] = target: T2, human PD-L2 (full-length, on cells); assay: FACS on CHO-K1 cells expressing human PD-L2, against the parental antibody
In short: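 Sequence-optimised antibodies expressed in HEK293 cells and their parental antibodies were incubated at different concentrations with CHO-K1 cells expressing human PD-L2. Cells were washed and binding was detected with an APC-labelled anti-human Fc antibody by flow cytometry on a FACSCalibur.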

T3 sequence (Q9NZQ7 19-290): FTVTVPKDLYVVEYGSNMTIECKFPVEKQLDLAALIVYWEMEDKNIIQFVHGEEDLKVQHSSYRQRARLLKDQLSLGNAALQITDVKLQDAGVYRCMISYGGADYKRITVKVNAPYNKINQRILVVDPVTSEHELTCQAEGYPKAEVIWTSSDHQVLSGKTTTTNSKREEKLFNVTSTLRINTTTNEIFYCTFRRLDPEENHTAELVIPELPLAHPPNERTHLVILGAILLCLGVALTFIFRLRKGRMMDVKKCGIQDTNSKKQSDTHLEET

EC50 [1]: 2.21 nM
IC50 [2]: 0.104 nM
IC50 [3]: 0.0671 nM
IC50 [4]: 2.42 nM
IC50 [5]: 1.8 nM
EC50 [6]: 1.59 nM
EC50 [7]: 2.69 nM
Molecule: MIH18

binding result [8]: no binding
binding result [10]: no binding
binding result [12]: binds
B2: 19B3-B3 N92Y.LC.M23K.M63L.HC (antibody, V domains shown)
VH: QVQLVQSGAEVKKPGASVKVSCKASGYTFTNYAIHWVRQAPGQRLEWMGWINTGLGKPKYSQLFQDRVTITRDTSASTASMELSGLRSDDTAVYYCARVGWELYFDYWGQGTLVTVSS
VL: DIQMTQSPSTLSASVGDRVTITCRASQSISSLLAWYQQKPGKAPKLLIYKASSLESGVPSRFSGSGSGTEFTLTISSLQPDDFATYFCQQYYSYWTFGQGTKVEIK
notes: Optimized variant of 19B3-B3

binding result [8]: no binding
binding result [10]: no binding
binding result [12]: binds
B3: 19B3-B3 N92Q.LC.M23K.M63L.HC (antibody, V domains shown)
VH: B2 VH
VL: B2 VL with Y92Q
notes: Optimized variant of 19B3-B3

binding result [8]: no binding
binding result [9]: binds
binding result [10]: no binding
EC50 [11]: 0.32 nM
B5: 10A9-D2 N31Q.LC (antibody, V domains shown)
VH: QVQLQESGPGLVKPSETLSLTCAVSGGSISSSYWWSWVRQPPGKGLEWVGEVFHVGVTNYNPSLKSRVTISVDKSKNQFSLKLTSVTAADTAVYYCARVTGTTGYYHGLDVWGQGTTVTVFS
VL: DIQMTQSPSSLSASVGDRVTITCRASQGIRQDLGWYQQKPGKVPKRLIYAASSLQSGIPSRFSGSGSGTEFTLTISSLQPEDFATYYCLQHNNYPRTFGQGTKVEIK
notes: Optimized variant of 10A9-D2

Second part, the molecule before the results:

B1: 19B3-B3 M23K.M63L.HC (antibody, V domains shown)
VH: B2 VH
VL: B2 VL with Y92N
notes: Optimized variant of 19B3-B3
binding result [8]: no binding
binding result [9]: binds
binding result [10]: no binding
EC50 [11]: 0.38 nM

B4: 10D1-G1 N31Q.N92Q.LC (antibody, V domains shown)
VH: QVQLQESGPGLVKPSGTLSLTCAVSGGSISSSYWWSWVRQPPGKGLEWIGEIFHIGSTNYNPSLRSRVTISVVKSKNQFSLNLNSVTAADTAVYFCARVSGGYGYFSGMDVWGQGTTVTVSS
VL: B5 VL with V43A, A50G, I58V, N92Q, N93S
notes: Optimized variant of 10D1-G1; also called 10D1-G1 N31Q.N920.LC
binding result [8]: no binding
binding result [9]: binds
binding result [10]: no binding
EC50 [11]: 0.32 nM
